Experimental findings from patent CN112646029A are described below.

The target of this assay is T1, mBDNF (成熟脑源性神经营养因子, mature brain-derived neurotrophic factor) (Helarctos malayanus (Malayan sun bear) (Ursus malayanus)) (UniProt O18753).
T1 sequence: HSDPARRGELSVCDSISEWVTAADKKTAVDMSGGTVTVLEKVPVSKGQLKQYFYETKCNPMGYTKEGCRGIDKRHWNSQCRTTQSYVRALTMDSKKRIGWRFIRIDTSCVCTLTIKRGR
Nature of the assay: ELISA; antigen coated on the plate, purified antibody added, secondary antibody, TMB, OD450. For orientation: An ELISA detects its analyte on a solid surface through an enzyme-linked reagent.

B1: 抗mBDNF抗体 (anti-mature brain-derived neurotrophic factor antibody) (antibody, V domains shown)
VH: EVKLEESGGGLVQPGGSMKLSCVASGFTFNNYWMNWVRQSPGKGLEWVAQIRLDSDNYATHYAESVIGRFTISSDDSKSSVYLQMNNLRAEDTGIYYCTAFDYAMDYWGQGTSVTVSS
VL: DIVMTQSHKFMSTSVGDRVSITCKASQDVGSAVAWYQQKPGQSPKLLIYWASTRHTGVPNRFTGSGSGTDFTLTISNVHSEDLADYFCQQYSSYPLTFGSRTKLEIK
In turn, B1 yielded a lowest antigen concentration at which the antigen was detected of 1.95 ng/mL.
